Laboratory results from patent publication US20240209093A1 (I MAB BIOPHARMA, published 2024).

Key:
Tag1-CD47 = biological target: T1, Tag1-CD47 (UniProt Q08722 19-139); experiment: HTRF CD47/SIRPα binding assay (Cisbio): blocking of Tag2-SIRPa binding to Tag1-CD47; axis numbers -3 to 3 read as log10 of nM
T1 construct: Bought kit reagent
Source text: Fluorescence data were read on a PerkinElmer Envision plate reader using laser as light source.

human PD-L1 on cells [1] = biological target: T2, human PD-L1 on cells (human, UniProt Q9NZQ7 19-290); experiment: flow cytometry on RKO cells, which carry both human CD47 and human PD-L1; APC-labelled secondary antibody; signal not resolved between the two arms
T2 construct: whole, on cells; also called Raji cells overexpressing human PD-L1; Raji-PD-L1 cells
Method: (§1) RKO cells are human colon carcinoma cell lines that express endogenous level of human CD47 and human PD-L1 on the surface. RKO cells were incubated with serial diluted anti-CD47/PD-L1 bispecific antibodies, parental CD47 or PD-L1 monospecific antibodies at 4° C. for 30 minutes. Then cells were washed with FACS buffer three times, followed by incubation with APC-labeled secondary antibody at 4° C. for 30 minutes. Then cells were washed with FACS buffer for three times. Binding was measured by flow cytometry.

[2] = biological target: T3, His-tagged human TIGIT-ECD protein (human, UniProt Q495A1 22-141); experiment: ELISA on His-tagged human TIGIT
T3 construct: extracellular domain; also called hTIGIT-his
T3 sequence (looked up): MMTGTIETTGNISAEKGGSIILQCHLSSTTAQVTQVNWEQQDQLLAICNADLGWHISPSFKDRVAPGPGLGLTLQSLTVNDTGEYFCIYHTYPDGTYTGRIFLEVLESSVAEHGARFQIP

human PD-L1 on cells [3] = biological target: T2, human PD-L1 on cells; experiment: flow cytometry on Raji cells overexpressing human PD-L1, PE-anti-hu IgG [panel C]
Method: Furthermore, binding capability of the anti-PD-L1/TIGIT bsAbs of the present application with cells expressing PD-L1 was analyzed by using Raji-PD-L1 cells. Briefly, 50 μl Raji cells overexpressing human PD-L1 were seeded into 96 well plate with 2*10⁵ cells/well.

human PD-L1-his [4] = biological target: T4, human PD-L1-his (human, UniProt Q9NZQ7 19-238); experiment: ELISA, plate coated with human His-PD-L1, detection goat anti-human IgG Fc HRP [panel B]
T4 construct: also called hPD-L1-his; human His-PD-L1
Source text: (§2) Binding of the anti-PD-L1/TIGIT bsAb molecules with human PD-L1 was further analyzed by ELISA.

human PD-L1-his [5] = biological target: T4, human PD-L1-his; experiment: ELISA, plate coated with human His-PD-L1, detection goat anti-human IgG Fc HRP
Source text: Binding properties of the humanized anti-PD-L1 antibody of the present application were first evaluated by ELISA assay.

human PD-L1 on cells [6] = biological target: T2, human PD-L1 on cells; experiment: flow cytometry on RKO cells (endogenous CD47 and PD-L1), APC-labelled secondary antibody
Method: as §1

human PD-L1-his [7] = biological target: T4, human PD-L1-his; experiment: SPR, Biacore T200, antibody captured on protein A chip, hPD-L1-his 6.25-100 nM as analyte
Method: The binding affinity of the PD-L1/TIGIT bsAb to recombinant human his-tagged PD-L1 protein was tested by BIACORE®. […] A series of dilutions of human PD-L1 protein (6.25 nM-100 nM) were injected over captured antibody at a flow rate of 10 μL/min. The antigen was allowed to associate for 180 s and dissociate for 1200 s. All the experiments were carried out on a Biacore T200. Data analysis was carried out using Biacore T200 evaluation software.

human PD-L1 on cells [8] = biological target: T2, human PD-L1 on cells; experiment: flow cytometry on Raji cells overexpressing human PD-L1, PE-anti-hu IgG
Method: Binding capability of the anti-PD-L1 antibody of the present application was further evaluated by using Raji cells overexpressing human PD-L1. Briefly, 50 μl Raji cells overexpressing human PD-L1 were seeded into 96 well plate at a concentration of 2*10⁵ cells/well. […] Then the cells were washed twice by FACS buffer and supplemented with 100 μl PE-anti-hu IgG, followed by incubation on ice for 1 hour. After incubation, the cells in each well were collected and resuspended with 65 μl FACS buffer for analysis by flow cytometry.

human PD-L1-his [9] = biological target: T4, human PD-L1-his; experiment: SPR, Biacore, full kinetics, antigen 100-1.5625 nM
human PD-L1-his [10] = biological target: T4, human PD-L1-his; experiment: ELISA, plate coated with human His-PD-L1, detection goat anti-human IgG Fc HRP [panel A]
Source text: as §2

T2 sequence (Q9NZQ7 19-290): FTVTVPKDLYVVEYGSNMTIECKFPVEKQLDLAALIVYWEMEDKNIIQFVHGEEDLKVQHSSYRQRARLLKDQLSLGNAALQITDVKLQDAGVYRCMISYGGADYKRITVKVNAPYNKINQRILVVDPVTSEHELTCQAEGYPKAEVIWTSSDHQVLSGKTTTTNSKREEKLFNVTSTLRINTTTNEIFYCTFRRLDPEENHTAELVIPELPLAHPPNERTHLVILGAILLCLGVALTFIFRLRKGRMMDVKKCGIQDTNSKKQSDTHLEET
T4 sequence (Q9NZQ7 19-238 limits assumed): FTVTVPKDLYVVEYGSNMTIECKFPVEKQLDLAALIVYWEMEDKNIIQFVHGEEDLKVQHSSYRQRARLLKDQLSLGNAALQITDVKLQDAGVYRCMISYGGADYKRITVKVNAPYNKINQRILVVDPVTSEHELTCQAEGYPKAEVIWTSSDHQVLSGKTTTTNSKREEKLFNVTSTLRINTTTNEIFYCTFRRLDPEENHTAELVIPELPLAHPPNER
T1 sequence (Q08722 19-139 limits assumed): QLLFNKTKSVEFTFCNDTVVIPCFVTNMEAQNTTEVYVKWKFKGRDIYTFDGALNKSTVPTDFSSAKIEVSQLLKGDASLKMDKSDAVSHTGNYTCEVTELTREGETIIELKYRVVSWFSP

Row | Binder | IC50 (read off the curve) (Tag1-CD47) [nM] | binding result (human PD-L1 on cells [1]) | EC50 (read off the curve) (human PD-L1 on cells [3]) [nM] | EC50 (read off the curve) (human PD-L1-his [4]) [nM] | EC50 (read off the curve) (human PD-L1-his [5]) [nM] | EC50 (read off the curve) (human PD-L1 on cells [8]) [nM] | also measured
1 | 13H3-L-93VH6-IgG1 (bispecific antibody, Symmetric 'two to two' anti-CD47/PD-L1 bispecific) heavy: not shown light: DIVMTQSPDSLAVSLGERATINCKSSQSVLYAGNNRNYLAWYQQKPGQPPKLLINQASTRASGVPDRFSGSGSGTEFTLIISSLQAEDVAIYYCQQYYTPPLAFGGGTKLEIKGGGGSGGGGSGGGGSGGGGSEVQLVESGGGLVQPGGSLRLSCAASGFTFTFRHYVMGWFRQAPGKEREFVAAISWSGSGSYYADSVKGRFTISRDNSKNTVYLQMNSLRAEDTAVYYCAADMTTRMSQASREYDYWGQGTLVTVSSRTVAAPSVFIFPPSDEQLKSGTASVVCLLNNFYPREAKVQWKVDNALQSGNSQESVTEQDSKDSTYSLSSTLTLSKADYEKHKVYACEVTHQGLSSPVTKSFNRGEC | ~1 | binds |  |  |  |  | 
2 | TIGIT-Fc-112-VH47 (bispecific antibody, human IgG1, kappa) heavy: not shown light: DIVMTQSPSSLSASVGDRVTITCKASQDVDTAVAWYQQKPGKAPKLLIYWASARHTGVPSRFSGSGSGTDFTFTISSLQPEDIATYYCQQYSNYPLTFGQGTKLEIKRTVAAPSVFIFPPSDEQLKSGTASVVCLLNNFYPREAKVQWKVDNALQSGNSQESVTEQDSKDSTYSLSSTLTLSKADYEKHKVYACEVTHQGLSSPVTKSFNRGEC |  |  | ~0.4 | ~0.02 |  |  | EC50 (read off the curve) [2]: ~0.01 nM
3 | 93-VH-6 (VHH, Humanized anti-PD-L1 single domain antibody; the assays imply a human Fc part that is not described; also called PD-L1 Ab (93-VH6); 93-VH6 sdAb) VHH: EVQLVESGGGLVQPGGSLRLSCAASGFTFTFRHYVMGWFRQAPGKEREFVAAISWSGSGSYYADSVKGRFTISRDNSKNTVYLQMNSLRAEDTAVYYCAADMTTRMSQASREYDYWGQGTLVTVSS |  |  |  |  | ~0.02 | ~0.4 | EC50 (read off the curve) (human PD-L1 on cells [6]): ~0.3 nM; Kd (human PD-L1-his [7]): 3.64 nM; koff (human PD-L1-his [7]): 0.000128 s⁻¹; kon (human PD-L1-his [7]): 35300 M⁻¹ s⁻¹; Kd (human PD-L1-his [9]): 2.06 nM; koff (human PD-L1-his [9]): 0.000197 s⁻¹; kon (human PD-L1-his [9]): 95900 M⁻¹ s⁻¹; EC50 (read off the curve) (human PD-L1-his [10]): ~1 nM
4 | 34C5-L-93VH6-IgG1 (bispecific antibody, Symmetric 'two to two' anti-CD47/PD-L1 bispecific) heavy: not shown light: DIQMTQSPSSLSASVGDRVTITCRASQDISDYLNWYQQKPGKAPKLLIYYISRLHSGVPSRFSGSGSGTDYTLTISSLQPEDFATYYCQQGHTLPWTFGGGTKVEIKGGGGSGGGGSGGGGSGGGGSEVQLVESGGGLVQPGGSLRLSCAASGFTFTFRHYVMGWFRQAPGKEREFVAAISWSGSGSYYADSVKGRFTISRDNSKNTVYLQMNSLRAEDTAVYYCAADMTTRMSQASREYDYWGQGTLVTVSSRTVAAPSVFIFPPSDEQLKSGTASVVCLLNNFYPREAKVQWKVDNALQSGNSQESVTEQDSKDSTYSLSSTLTLSKADYEKHKVYACEVTHQGLSSPVTKSFNRGEC | ~1 | binds |  |  |  |  | 
5 | 112-VH47 (VHH, Humanized anti-PD-L1 single domain antibody) VHH: EVQLVESGGGLVQPGGSLRLSCAASGFTFSSGTQFSDSKIDWYRQAPGKGLVWVAGIFSTGSTIYEDSVKGRFTISRDNAKNTGYLQMNSLRAEDTAVYYCRVIGRGILAWGQGTLVTVSS |  |  | ~0.3 | ~0.009 | ~0.009 | ~0.3 | 
